Experimental data reported in patent US20260152562A1.
Each block holds one substance with its values, some of them ahead of it.

Assays:
Test in all cases: cell-based or functional assay
[1] = biological target: Anti-EGFR Activatable Antibody C225v5-3954-4008 (linker form not stated)
[2] = biological target: Anti-EGFR Activatable Antibody c225v5-3954-2001
[3] = biological target: Anti-EGFR Activatable Antibody c225v5-3954-3001
[4] = biological target: Anti-EGFR Activatable Antibody c225v5-3954-5006; for Cleavability (%) MMP14: test concentration or dose not given here; for Cleavability (%) Neutrophil Elastase: test concentration or dose not given here
[5] = biological target: Anti-EGFR Activatable Antibody c225v5-3954-5007; for Cleavability (%) Matriptase: test concentration or dose not given here; for Cleavability (%) Neutrophil Elastase: test concentration or dose not given here
[6] = biological target: Anti-EGFR Activatable Antibody c225v5-3954-5011
[7] = biological target: Anti-EGFR Activatable Antibody c225v5-3954-5013; for Cleavability (%) Matriptase: test concentration or dose not given here
[8] = biological target: Anti-EGFR Activatable Antibody with substrate 4001 (linker form not stated); for Cleavability (%) MMP14: test concentration or dose not given here
[9] = biological target: Anti-EGFR Activatable Antibody c225v5-3954-4001LL; for MMP14 Cleavability (%): test concentration or dose not given here
[10] = biological target: Anti-EGFR Activatable Antibody c225v5-3954-4001SL
[11] = biological target: Anti-EGFR Activatable Antibody c225v5-3954-4002SL
[12] = biological target: Anti-EGFR Activatable Antibody c225v5-3954-4003SL
[13] = biological target: Anti-EGFR Activatable Antibody c225v5-3954-4004LL
[14] = biological target: Anti-EGFR Activatable Antibody c225v5-3954-4005SL; for MMP14 Cleavability (%): test concentration or dose not given here
[15] = biological target: Anti-EGFR Activatable Antibody c225v5-3954-4006LL; for MMP14 Cleavability (%): test concentration or dose not given here
[16] = biological target: Anti-EGFR Activatable Antibody c225v5-3954-4006SL
[17] = biological target: Anti-EGFR Activatable Antibody c225v5-3954-4007SL
[18] = biological target: Anti-EGFR Activatable Antibody c225v5-3954-4008LL
[19] = biological target: Anti-EGFR Activatable Antibody c225v5-3954-4009SL
[20] = biological target: Anti-EGFR Activatable Antibody c225v5-3954-4010SL
[21] = biological target: Anti-EGFR Activatable Antibody c225v5-3954-4011SL
[22] = biological target: Anti-EGFR Activatable Antibody c225v5-3954-4012SL
[23] = biological target: Anti-EGFR Activatable Antibody c225v5-3954-4014SL; for MMP14 Cleavability (%): test concentration or dose not given here
[24] = biological target: Anti-EGFR Activatable Antibody c225v5-3954-4015LL
[25] = biological target: Anti-EGFR Activatable Antibody c225v5-3954-5001; for Cleavability (%) MMP14: test concentration or dose not given here; for Cleavability (%) Matriptase: test concentration or dose not given here
[26] = biological target: Anti-EGFR Activatable Antibody c225v5-3954-5002; for Cleavability (%) Neutrophil Elastase: test concentration or dose not given here
[27] = biological target: Anti-EGFR Activatable Antibody c225v5-3954-5003; for Cleavability (%) MMP14: test concentration or dose not given here
[28] = biological target: Anti-EGFR Activatable Antibody c225v5-3954-5004
[29] = biological target: Anti-EGFR Activatable Antibody c225v5-3954-5005
[30] = biological target: Anti-EGFR Activatable Antibody c225v5-3954-5008; for Cleavability (%) Matriptase: test concentration or dose not given here; for Cleavability (%) Neutrophil Elastase: test concentration or dose not given here
[31] = biological target: Anti-EGFR Activatable Antibody c225v5-3954-5009
[32] = biological target: Anti-EGFR Activatable Antibody c225v5-3954-5010
[33] = biological target: Anti-EGFR Activatable Antibody c225v5-3954-5012

Sequence of recombinant neutrophil elastase (P08246 30-267 limits assumed): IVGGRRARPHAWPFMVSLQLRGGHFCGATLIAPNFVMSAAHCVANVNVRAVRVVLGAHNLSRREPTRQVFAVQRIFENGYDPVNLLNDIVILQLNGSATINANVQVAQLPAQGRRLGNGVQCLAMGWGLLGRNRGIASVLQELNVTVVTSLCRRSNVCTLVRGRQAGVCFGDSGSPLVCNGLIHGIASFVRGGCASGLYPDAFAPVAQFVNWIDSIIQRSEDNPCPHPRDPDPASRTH
Sequence of recombinant matriptase (Q9Y5Y6 615-855 limits assumed): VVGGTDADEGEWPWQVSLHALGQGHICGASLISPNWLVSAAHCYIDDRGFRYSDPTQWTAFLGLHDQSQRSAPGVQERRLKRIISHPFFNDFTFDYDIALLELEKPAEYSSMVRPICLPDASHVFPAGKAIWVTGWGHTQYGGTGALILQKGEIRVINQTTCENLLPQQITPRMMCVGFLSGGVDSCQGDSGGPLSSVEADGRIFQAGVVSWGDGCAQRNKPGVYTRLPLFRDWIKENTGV
Sequence of recombinant MMP2 (P08253 110-660 limits assumed): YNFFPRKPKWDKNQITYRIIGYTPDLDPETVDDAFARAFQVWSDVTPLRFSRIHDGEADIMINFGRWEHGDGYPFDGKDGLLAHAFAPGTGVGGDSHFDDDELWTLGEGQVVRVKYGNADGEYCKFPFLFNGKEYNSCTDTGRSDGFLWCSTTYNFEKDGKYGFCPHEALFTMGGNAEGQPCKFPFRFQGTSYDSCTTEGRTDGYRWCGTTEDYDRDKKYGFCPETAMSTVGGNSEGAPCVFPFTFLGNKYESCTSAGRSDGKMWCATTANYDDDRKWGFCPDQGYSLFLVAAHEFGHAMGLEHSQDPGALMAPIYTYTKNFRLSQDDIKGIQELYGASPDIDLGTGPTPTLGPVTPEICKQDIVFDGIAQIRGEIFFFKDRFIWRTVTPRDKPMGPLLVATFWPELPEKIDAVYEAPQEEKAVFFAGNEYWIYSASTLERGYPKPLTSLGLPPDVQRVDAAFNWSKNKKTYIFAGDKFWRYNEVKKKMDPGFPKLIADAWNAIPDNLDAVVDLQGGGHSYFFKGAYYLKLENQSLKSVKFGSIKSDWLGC

Substance: recombinant MMP2 (from UniProt P08253 110-660) (enzyme)
- Kcat/Km (M^-1 s^-1) MMP2 [1]: 13000 M⁻¹ s⁻¹
- Kcat/Km (M^-1 s^-1) MMP2 [2]: 13200 M⁻¹ s⁻¹
- Kcat/Km (M^-1 s^-1) MMP2 [3]: 310000 M⁻¹ s⁻¹
- Kcat/Km (M^-1 s^-1) MMP2 [4]: 36900 M⁻¹ s⁻¹
- Kcat/Km (M^-1 s^-1) MMP2 [5]: 98300 M⁻¹ s⁻¹
- Kcat/Km (M^-1 s^-1) MMP2 [6]: 3380 M⁻¹ s⁻¹
- Kcat/Km (M^-1 s^-1) MMP2 [7]: 76500 M⁻¹ s⁻¹
- Kcat/Km (M^-1 s^-1) MMP2 [8]: 57600 M⁻¹ s⁻¹

Substance: recombinant legumain (from UniProt Q99538 18-323) (enzyme)
- Cleavability (%) Legumain [1]: 0%
- Cleavability (%) Legumain [2]: 5%
- Cleavability (%) Legumain [3]: 0%
- Cleavability (%) Legumain [25]: 0%
- Cleavability (%) Legumain [26]: 21%
- Cleavability (%) Legumain [27]: 0%
- Cleavability (%) Legumain [28]: 27%
- Cleavability (%) Legumain [29]: 0%
- Cleavability (%) Legumain [4]: 0%
- Cleavability (%) Legumain [5]: 0%
- Cleavability (%) Legumain [30]: 0%
- Cleavability (%) Legumain [31]: 0%
- Cleavability (%) Legumain [32]: 0%
- Cleavability (%) Legumain [6]: 0%
- Cleavability (%) Legumain [33]: 7%
- Cleavability (%) Legumain [7]: 9%
- Cleavability (%) Legumain [8]: 0%

Substance: recombinant matriptase (from UniProt Q9Y5Y6 615-855) (enzyme)
- Cleavability (%) Matriptase [1]: 40%
- Kcat/Km (M^-1 s^-1) Matriptase [1]: 476 M⁻¹ s⁻¹
- Cleavability (%) Matriptase [2]: 53%
- Kcat/Km (M^-1 s^-1) Matriptase [2]: 2550 M⁻¹ s⁻¹
- Kcat/Km (M^-1 s^-1) Matriptase [3]: 5350 M⁻¹ s⁻¹
- Cleavability (%) Matriptase [25]: 100%
- Cleavability (%) Matriptase [26]: 100%
- Cleavability (%) Matriptase [27]: 99%
- Cleavability (%) Matriptase [28]: 75%
- Cleavability (%) Matriptase [29]: 6%
- Cleavability (%) Matriptase [4]: 100%
- Kcat/Km (M^-1 s^-1) Matriptase [4]: 5370 M⁻¹ s⁻¹
- Cleavability (%) Matriptase [5]: 100%
- Kcat/Km (M^-1 s^-1) Matriptase [5]: 27200 M⁻¹ s⁻¹
- Cleavability (%) Matriptase [30]: 98%
- Cleavability (%) Matriptase [31]: 100%
- Cleavability (%) Matriptase [32]: 0%
- Cleavability (%) Matriptase [6]: 80%
- Kcat/Km (M^-1 s^-1) Matriptase [6]: 1430 M⁻¹ s⁻¹
- Cleavability (%) Matriptase [33]: 0%
- Cleavability (%) Matriptase [7]: 0%
- Kcat/Km (M^-1 s^-1) Matriptase [7]: 0 M⁻¹ s⁻¹
- Cleavability (%) Matriptase [8]: 0%
- Kcat/Km (M^-1 s^-1) Matriptase [8]: 0 M⁻¹ s⁻¹

Other lines, results leading:

- Cleavability (%) MMP9 [1]: 100%
- Kcat/Km (M^-1 s^-1) MMP9 [1]: 18700 M⁻¹ s⁻¹
- Cleavability (%) MMP9 [2]: 22%
- Kcat/Km (M^-1 s^-1) MMP9 [2]: 394 M⁻¹ s⁻¹
- Kcat/Km (M^-1 s^-1) MMP9 [3]: 50500 M⁻¹ s⁻¹
- MMP9 Cleavability (%) [9]: 100%
- MMP9 Cleavability (%) [10]: 94.5%
- MMP9 Cleavability (%) [11]: 87.5%
- MMP9 Cleavability (%) [12]: 6%
- MMP9 Cleavability (%) [13]: 29.8%
- MMP9 Cleavability (%) [14]: 70.5%
- MMP9 Cleavability (%) [15]: 90.8%
- MMP9 Cleavability (%) [16]: 92.9%
- MMP9 Cleavability (%) [17]: 69.5%
- MMP9 Cleavability (%) [18]: 55.2%
- MMP9 Cleavability (%) [19]: 22.1%
- MMP9 Cleavability (%) [20]: 18%
- MMP9 Cleavability (%) [21]: 78.8%
- MMP9 Cleavability (%) [22]: 56.5%
- MMP9 Cleavability (%) [23]: 0%
- MMP9 Cleavability (%) [24]: 90%
- Cleavability (%) MMP9 [25]: 76%
- Cleavability (%) MMP9 [26]: 37%
- Cleavability (%) MMP9 [27]: 100%
- Cleavability (%) MMP9 [28]: 86%
- Cleavability (%) MMP9 [29]: 72%
- Cleavability (%) MMP9 [4]: 81%
- Kcat/Km (M^-1 s^-1) MMP9 [4]: 33900 M⁻¹ s⁻¹
- Cleavability (%) MMP9 [5]: 77%
- Kcat/Km (M^-1 s^-1) MMP9 [5]: 25300 M⁻¹ s⁻¹
- Cleavability (%) MMP9 [30]: 100%
- Cleavability (%) MMP9 [31]: 78%
- Cleavability (%) MMP9 [32]: 0%
- Cleavability (%) MMP9 [6]: 55%
- Kcat/Km (M^-1 s^-1) MMP9 [6]: 4180 M⁻¹ s⁻¹
- Cleavability (%) MMP9 [33]: 52%
- Cleavability (%) MMP9 [7]: 62%
- Kcat/Km (M^-1 s^-1) MMP9 [7]: 10400 M⁻¹ s⁻¹
- Cleavability (%) MMP9 [8]: 100%
- Kcat/Km (M^-1 s^-1) MMP9 [8]: 8840 M⁻¹ s⁻¹
Substance: recombinant MMP9 (from UniProt P14780 107-707) (enzyme)

- Cleavability (%) MMP14 [1]: 6%
- Kcat/Km (M^-1 s^-1) MMP14 [1]: 230 M⁻¹ s⁻¹
- Cleavability (%) MMP14 [2]: 58%
- Kcat/Km (M^-1 s^-1) MMP14 [2]: 6330 M⁻¹ s⁻¹
- Kcat/Km (M^-1 s^-1) MMP14 [3]: 17000 M⁻¹ s⁻¹
- MMP14 Cleavability (%) [9]: 100%
- MMP14 Cleavability (%) [10]: 96.5%
- MMP14 Cleavability (%) [11]: 85.9%
- MMP14 Cleavability (%) [12]: 53.1%
- MMP14 Cleavability (%) [13]: 46.2%
- MMP14 Cleavability (%) [14]: 24.4%
- MMP14 Cleavability (%) [15]: 84.2%
- MMP14 Cleavability (%) [16]: 85.7%
- MMP14 Cleavability (%) [17]: 0%
- MMP14 Cleavability (%) [18]: 0%
- MMP14 Cleavability (%) [19]: 0%
- MMP14 Cleavability (%) [20]: 0%
- MMP14 Cleavability (%) [21]: 9.9%
- MMP14 Cleavability (%) [22]: 0%
- MMP14 Cleavability (%) [23]: 30.5%
- MMP14 Cleavability (%) [24]: 0%
- Cleavability (%) MMP14 [25]: 76%
- Cleavability (%) MMP14 [26]: 58%
- Cleavability (%) MMP14 [27]: 20%
- Cleavability (%) MMP14 [28]: 19%
- Cleavability (%) MMP14 [29]: 34%
- Cleavability (%) MMP14 [4]: 6%
- Kcat/Km (M^-1 s^-1) MMP14 [4]: 564 M⁻¹ s⁻¹
- Cleavability (%) MMP14 [5]: 90%
- Kcat/Km (M^-1 s^-1) MMP14 [5]: 9250 M⁻¹ s⁻¹
- Cleavability (%) MMP14 [30]: 55%
- Cleavability (%) MMP14 [31]: 9%
- Cleavability (%) MMP14 [32]: 11%
- Cleavability (%) MMP14 [6]: 7%
- Kcat/Km (M^-1 s^-1) MMP14 [6]: 444 M⁻¹ s⁻¹
- Cleavability (%) MMP14 [33]: 72%
- Cleavability (%) MMP14 [7]: 78%
- Kcat/Km (M^-1 s^-1) MMP14 [7]: 7770 M⁻¹ s⁻¹
- Cleavability (%) MMP14 [8]: 77%
- Kcat/Km (M^-1 s^-1) MMP14 [8]: 6010 M⁻¹ s⁻¹
Substance: recombinant MMP14 (from UniProt P50281 112-538) (enzyme)

- Cleavability (%) Neutrophil Elastase [1]: 28%
- Cleavability (%) Neutrophil Elastase [2]: 18%
- Kcat/Km (M^-1 s^-1) Neutrophil Elastase [2]: 3170 M⁻¹ s⁻¹
- Cleavability (%) Neutrophil Elastase [3]: 52%
- Kcat/Km (M^-1 s^-1) Neutrophil Elastase [3]: 19100 M⁻¹ s⁻¹
- Cleavability (%) Neutrophil Elastase [25]: 88%
- Cleavability (%) Neutrophil Elastase [26]: 67%
- Cleavability (%) Neutrophil Elastase [27]: 77%
- Cleavability (%) Neutrophil Elastase [28]: 84%
- Cleavability (%) Neutrophil Elastase [29]: 81%
- Cleavability (%) Neutrophil Elastase [4]: 30%
- Cleavability (%) Neutrophil Elastase [5]: 74%
- Kcat/Km (M^-1 s^-1) Neutrophil Elastase [5]: 24200 M⁻¹ s⁻¹
- Cleavability (%) Neutrophil Elastase [30]: 66%
- Cleavability (%) Neutrophil Elastase [31]: 31%
- Cleavability (%) Neutrophil Elastase [32]: 100%
- Cleavability (%) Neutrophil Elastase [6]: 100%
- Kcat/Km (M^-1 s^-1) Neutrophil Elastase [6]: 665000 M⁻¹ s⁻¹
- Cleavability (%) Neutrophil Elastase [33]: 55%
- Cleavability (%) Neutrophil Elastase [7]: 56%
- Cleavability (%) Neutrophil Elastase [8]: 37%
Substance: recombinant neutrophil elastase (from UniProt P08246 30-267) (enzyme)
